In PMC8670242, “Functional Characterization and Structural Insights Into Stereoselectivity of Pulegone Reductase in Menthol Biosynthesis” (Frontiers in Plant Science, 2021):

Biological target: the molecule itself
Test: SEC; gel filtration of purified wild type MpPR on HiLoad 16/60 Superdex 200 in 10 mM Tris-HCl pH 8.0, 50 mM NaCl, 5 mM MgCl2, 1 mM DTT; molecular mass calibrated with high and low molecular weight calibration kits

B1: (+)-pulegone reductase from Mentha piperita (enzyme)
chain: MVMNKQIVLNNYINGSLKQSDLALRTSTICMEIPDGCNGAILVKNLYLSVNPYLILRMGKLDIPQFDSILPGSTIVSYGVSKVLDSTHPSYEKGELIWGSQAGWEEYTLIQNPYNLFKIQDKDVPLSYYVGILGMPGMTAYAGFFEICSPKKGETVFVTAAAGSVGQLVGQFAKMFGCYVVGSAGSKEKVDLLKNKFGFDDAFNYKEESDYDTALKRHFPEGIDIYFDNVGGKMLEAVINNMRVHGRIAVCGMVSQYSLKQPEGVHNLLKLIPKQIRMQGFVVVDYYHLYPKFLEMVLPRIKEGKVTYVEDISEGLESAPSALLGVYVGRNVGNQVVAVSRE
notes: (+)-pulegone reductase, Mentha piperita, UniProt Q6WAU0; gene cloned into pET28a with NheI and HindIII; also called MpPR; wild type MpPR; source: E. coli BL21(DE3), purified (Ni-NTA, gel filtration on Superdex 200)
**Q.** For B1, which “stoichiometry N” value is on record?
**A.** 2
